Data as given in paper PMC12691694, “Bacillus velezensis LoaP promotes antitermination by antagonizing NusA”.

Target: T1, NusA (Bacillus velezensis, UniProt A7Z4T1 1-373)
T1 sequence: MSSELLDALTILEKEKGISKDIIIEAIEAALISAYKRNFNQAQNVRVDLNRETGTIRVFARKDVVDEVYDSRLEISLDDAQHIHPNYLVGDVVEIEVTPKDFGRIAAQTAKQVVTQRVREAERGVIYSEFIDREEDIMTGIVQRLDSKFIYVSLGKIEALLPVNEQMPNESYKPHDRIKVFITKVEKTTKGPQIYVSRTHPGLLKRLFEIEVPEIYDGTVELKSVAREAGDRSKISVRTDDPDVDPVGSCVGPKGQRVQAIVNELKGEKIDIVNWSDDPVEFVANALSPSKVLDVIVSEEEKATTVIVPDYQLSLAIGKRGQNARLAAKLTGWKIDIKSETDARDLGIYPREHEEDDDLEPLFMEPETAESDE
Assay: DRaCALA filter binding; 50 mM NaH2PO4 pH 7.2, 100 mM NaCl, 0.1 mM EDTA, 1 mM MgCl2, 100 ug/mL BSA, 25 ug/mL total yeast RNA, 2.5 nM labeled RNA, 45 min, room temperature
Conditions: protein: recombinant; tags: N-terminal His10-SUMO removed by bdSENP1; label: 5'-32P; hairpin

GGAAACACAGUUUGCGAUUUUUAAACCUGUGCUGAAUCGCAAACUGUG (structured_RNA) [dfnA* mutant terminator (dfnA mut)]
binding result: binds

B1: dfnA terminator (structured_RNA)
RNA: GGAAACACAAUGCGUUUGCGAUUUUUAAACCUGUGCUGAAUCGCAAACGCGUUUGUG
binding result: binds
